The target in assay [1] is T1, FcγRIIIa (human, UniProt P08637 17-208).
T1 construct: extracellular domain; also called 3a
Description: SPR (Biacore), antibody captured on chip, FcγR as analyte; relative to GpH7-A5/GpH7-B3/GpL16-k0 = 100.

The target in assay [2] is T2, FcγRIIa(R) (human, UniProt P12318 34-217).
T2 construct: extracellular domain; allotype R131; also called 2aR
T2 sequence: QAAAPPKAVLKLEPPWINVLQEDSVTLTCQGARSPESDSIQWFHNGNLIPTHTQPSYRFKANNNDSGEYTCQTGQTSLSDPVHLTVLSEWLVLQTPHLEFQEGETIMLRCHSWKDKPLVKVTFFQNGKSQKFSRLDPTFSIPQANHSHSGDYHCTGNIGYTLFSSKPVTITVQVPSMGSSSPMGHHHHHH
The description is as above.

Assay [3] has as its target T3, FcγRIIb (human, UniProt P31994 43-217).
T3 construct: extracellular domain; also called 2b
T3 sequence: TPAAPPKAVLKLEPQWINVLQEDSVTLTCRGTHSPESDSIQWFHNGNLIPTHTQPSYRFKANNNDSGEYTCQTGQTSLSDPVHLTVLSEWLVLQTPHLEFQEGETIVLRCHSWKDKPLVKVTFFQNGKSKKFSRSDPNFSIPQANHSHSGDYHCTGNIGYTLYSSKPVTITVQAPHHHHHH
The assay is described as above.

In assay [4] the target is T4, FcγRIa (human, UniProt P12314 16-292).
T4 construct: extracellular domain; also called 1a
T4 sequence (P12314 other isoform, or with tags, fused parts or gaps): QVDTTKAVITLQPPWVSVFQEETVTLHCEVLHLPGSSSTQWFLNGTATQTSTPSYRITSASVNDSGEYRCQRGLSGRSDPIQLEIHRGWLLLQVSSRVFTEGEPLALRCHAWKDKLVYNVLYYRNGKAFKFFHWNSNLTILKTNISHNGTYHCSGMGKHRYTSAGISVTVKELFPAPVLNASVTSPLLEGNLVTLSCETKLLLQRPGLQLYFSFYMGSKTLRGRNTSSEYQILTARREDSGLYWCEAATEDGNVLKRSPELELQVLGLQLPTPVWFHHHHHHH
Described as above.

Assay [5] deals with T5, FcγRIIa(H) (human, UniProt P12318 34-217).
T5 construct: extracellular domain; allotype H131; also called 2aH
T5 sequence: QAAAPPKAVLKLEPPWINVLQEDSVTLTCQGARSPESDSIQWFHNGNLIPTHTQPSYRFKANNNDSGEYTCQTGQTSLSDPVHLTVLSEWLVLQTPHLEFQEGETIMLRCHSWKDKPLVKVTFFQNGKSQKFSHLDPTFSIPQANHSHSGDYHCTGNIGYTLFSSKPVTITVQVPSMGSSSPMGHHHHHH
The description is as above.

Assay [6] deals with T6, FcγRIIIa extracellular domain with C-terminal His tag (allotype not given) (human, UniProt P08637 17-208).
T6 construct: extracellular domain; also called 3a
T6 sequence (P08637 other isoform, or with tags, fused parts or gaps): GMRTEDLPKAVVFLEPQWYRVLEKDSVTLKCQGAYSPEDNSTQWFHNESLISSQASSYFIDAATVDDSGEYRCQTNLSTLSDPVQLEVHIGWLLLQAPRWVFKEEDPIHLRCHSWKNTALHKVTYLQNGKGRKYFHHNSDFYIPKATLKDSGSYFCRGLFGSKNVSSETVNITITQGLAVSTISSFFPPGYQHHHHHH
Nature of the assay: SPR (Biacore), captured antibody, FcγRIIIa analyte; binding relative to GpH7-A5/GpH7-B3/GpL16-k0 = 100. In general terms: In SPR one partner is held on a chip, and binding of the other changes the refractive index at the surface.

T1 sequence (P08637 other isoform, or with tags, fused parts or gaps): as above

B1: GpH7-A5/GpH7-B3 variant S337_20W/GpL16-k0 (antibody, human IgG1, kappa)
heavy 1: not shown
heavy 2: not shown
light: DIVMTQSPLSLPVTPGEPASISCQASESLVHSNRNTYLHWYLQKPGQSPQLLIYKVSNRFSGVPDRFSGSGSGTDFTLKISRVEAEDVGVYYCSQNTHVPPTFGQGTKVEIERTVAAPSVFIFPPSDEQLKSGTASVVCLLNNFYPREAKVQWKVDNALQSGNSQESVTEQDSKDSTYSLSSTLTLSKADYEKHKVYACEVTHQGLSSPVTKSFNRGEC
notes: Heterodimerized anti-glypican 3 IgG1 antibody with the mutation in only one H chain (GpH7-B3 side); also called He Ab
Take B1: the “He/Con 3a (binding activity relative to GpH7-A5/GpH7-B3/GpL16-k0 x 100)” value in assay [1] was 93.8 % of control. Also, the “He/Con 2aR (binding activity relative to GpH7-A5/GpH7-B3/GpL16-k0 x 100)” value in assay [2] was 112 % of control. The “He/Con 2b (binding activity relative to GpH7-A5/GpH7-B3/GpL16-k0 x 100)” value in assay [3] is 119 % of control. In assay [4], the “He/Con 1a (binding activity relative to GpH7-A5/GpH7-B3/GpL16-k0 x 100)” value was 102 % of control. For the same molecule, the “He/Con 2aH (binding activity relative to GpH7-A5/GpH7-B3/GpL16-k0 x 100)” value in assay [5] is 108 % of control.

B2: GpH7-A5/GpH7-B3 variant S337_07I/GpL16-k0 (antibody, human IgG1, kappa)
heavy 1: not shown
heavy 2: not shown
light: DIVMTQSPLSLPVTPGEPASISCQASESLVHSNRNTYLHWYLQKPGQSPQLLIYKVSNRFSGVPDRFSGSGSGTDFTLKISRVEAEDVGVYYCSQNTHVPPTFGQGTKVEIERTVAAPSVFIFPPSDEQLKSGTASVVCLLNNFYPREAKVQWKVDNALQSGNSQESVTEQDSKDSTYSLSSTLTLSKADYEKHKVYACEVTHQGLSSPVTKSFNRGEC
notes: heterodimerized anti-glypican 3 IgG1; mutation in one H chain only; also called He Ab
As to B2, the “He/Con 3a” value in assay [6] turned out to be 88.3%.

B3: GpH7-A5/GpH7-B3 variant S337_16H/GpL16-k0 (antibody, human IgG1, kappa)
heavy 1: not shown
heavy 2: not shown
light: DIVMTQSPLSLPVTPGEPASISCQASESLVHSNRNTYLHWYLQKPGQSPQLLIYKVSNRFSGVPDRFSGSGSGTDFTLKISRVEAEDVGVYYCSQNTHVPPTFGQGTKVEIERTVAAPSVFIFPPSDEQLKSGTASVVCLLNNFYPREAKVQWKVDNALQSGNSQESVTEQDSKDSTYSLSSTLTLSKADYEKHKVYACEVTHQGLSSPVTKSFNRGEC
notes: as for B2
On to B3, for which the “He/Con 3a” value in assay [6] stood at 100%.

B4: GpH7-A5/GpH7-B3 variant S337_14T/GpL16-k0 (antibody, human IgG1, kappa)
heavy 1: not shown
heavy 2: not shown
light: DIVMTQSPLSLPVTPGEPASISCQASESLVHSNRNTYLHWYLQKPGQSPQLLIYKVSNRFSGVPDRFSGSGSGTDFTLKISRVEAEDVGVYYCSQNTHVPPTFGQGTKVEIERTVAAPSVFIFPPSDEQLKSGTASVVCLLNNFYPREAKVQWKVDNALQSGNSQESVTEQDSKDSTYSLSSTLTLSKADYEKHKVYACEVTHQGLSSPVTKSFNRGEC
notes: as for B2
For B4, the “He/Con 3a” value in assay [6] was 94%.

B5: GpH7-A5/GpH7-B3 variant S337_19Q/GpL16-k0 (antibody, human IgG1, kappa)
heavy 1: not shown
heavy 2: not shown
light: DIVMTQSPLSLPVTPGEPASISCQASESLVHSNRNTYLHWYLQKPGQSPQLLIYKVSNRFSGVPDRFSGSGSGTDFTLKISRVEAEDVGVYYCSQNTHVPPTFGQGTKVEIERTVAAPSVFIFPPSDEQLKSGTASVVCLLNNFYPREAKVQWKVDNALQSGNSQESVTEQDSKDSTYSLSSTLTLSKADYEKHKVYACEVTHQGLSSPVTKSFNRGEC
notes: as for B2
Take B5: the “He/Con 3a” value in assay [6] is 91.2%.

B6: GpH7-A5/GpH7-B3 variant S337_15Y/GpL16-k0 (antibody, human IgG1, kappa)
heavy 1: not shown
heavy 2: not shown
light: DIVMTQSPLSLPVTPGEPASISCQASESLVHSNRNTYLHWYLQKPGQSPQLLIYKVSNRFSGVPDRFSGSGSGTDFTLKISRVEAEDVGVYYCSQNTHVPPTFGQGTKVEIERTVAAPSVFIFPPSDEQLKSGTASVVCLLNNFYPREAKVQWKVDNALQSGNSQESVTEQDSKDSTYSLSSTLTLSKADYEKHKVYACEVTHQGLSSPVTKSFNRGEC
notes: as for B2
For B6, the “He/Con 3a” value in assay [6] was 94.9%.

B7: GpH7-A5/GpH7-B3 variant S337_11K/GpL16-k0 (antibody, human IgG1, kappa)
heavy 1: not shown
heavy 2: not shown
light: DIVMTQSPLSLPVTPGEPASISCQASESLVHSNRNTYLHWYLQKPGQSPQLLIYKVSNRFSGVPDRFSGSGSGTDFTLKISRVEAEDVGVYYCSQNTHVPPTFGQGTKVEIERTVAAPSVFIFPPSDEQLKSGTASVVCLLNNFYPREAKVQWKVDNALQSGNSQESVTEQDSKDSTYSLSSTLTLSKADYEKHKVYACEVTHQGLSSPVTKSFNRGEC
notes: as for B2
Turning to B7, the “He/Con 3a” value in assay [6] is 80.1%.

B8: GpH7-A5/GpH7-B3 variant S337_08L/GpL16-k0 (antibody, human IgG1, kappa)
heavy 1: not shown
heavy 2: not shown
light: DIVMTQSPLSLPVTPGEPASISCQASESLVHSNRNTYLHWYLQKPGQSPQLLIYKVSNRFSGVPDRFSGSGSGTDFTLKISRVEAEDVGVYYCSQNTHVPPTFGQGTKVEIERTVAAPSVFIFPPSDEQLKSGTASVVCLLNNFYPREAKVQWKVDNALQSGNSQESVTEQDSKDSTYSLSSTLTLSKADYEKHKVYACEVTHQGLSSPVTKSFNRGEC
notes: as for B2
For B8, the “He/Con 3a” value in assay [6] came out at 90.2%.

Source of the values: patent publication US20260167699A1 (Chugai, published 2026).
